The supplement of paper PMC7877785
± gives the uncertainty stated by the source.

Experiment: self-splicing fitness, log relative to wild type (ln ratio); higher = more splicing; Tetrahymena group I intron in knt gene, E. coli kanamycin selection, DiMSum; sequences stand for … in CUCUCU…GGAGGGAAAAGUUAUCAGGCAUGCACCUGGUAGCUAGUCUUUAAACCAAUAGAUUGCAUCGGUUUAAAAGGCAAGACCGUCAAAUUGCGGGAAAGGGGUCAACAGCCGUUCAGUACCAAGUCUCAGGGGAAACUUUGAGAUGGCCUUGCAAAGGGUAUGGUAAUAAGCUGACGGACAUGGUCCUAACCACGCAGCCAAGUCCUAAGUCAACAGAUCUUCUGUUGAUAUGGAUGCAGUUCACAGACUAAAUGUCGGUCGGGGAAGAUGUAUUCUUCUCAUAAGAUAUAGUCGGACCUCUCCUUAAUGGGAGCUAGCGGAUGAAGUGAUGCAACACUGGAGCCGCUGGGAACUAAUUUGUAUGCGAAAGUAUAUUGAUUAGUUUUGGAGUACUCGUGGUCG
Method in brief: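 DiMSum derived fitness as the error-weighted combination of fold changes across replicates, kanamycin versus no kanamycin, normalised to wild type. E. coli BL21(DE3) held the library, which randomised all eight P1ex-region intron nucleotides within the knt kanamycin-resistance gene on pET-22b(+). Six replicate transformations grew overnight at 37°C or 30°C on LB agar with or without 25 μg/mL kanamycin, also containing 100 μg/mL carbenicillin, 50 μM IPTG and 0.2% rhamnose, and pooled colonies were amplicon-sequenced on an Illumina HiSeq 2500.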

Sequence | self-splicing fitness (ln) (30 °C) | self-splicing fitness (ln) (37 °C)
CUUCAGCAAUAUUACGGCGG | -2.02 ± 0.27 | -1.25 ± 0.18
CUUCAGCAAUAUUACGGGCC | -1.78 ± 0.22 | –
CUUCAGCAAUAUUACGGGCG | -0.584 ± 0.076 | -0.302 ± 0.098
CUUCAGCAAUAUUACGGUGU | -4.48 ± 0.21 | -3.73 ± 0.25
CUUCAGCAAUAUUACGUAUU | -3.18 ± 0.17 | -2.37 ± 0.2
CUUCAGCAAUAUUACGUCAG | -0.735 ± 0.054 | -0.0836 ± 0.082
CUUCAGCAAUAUUACGUCAU | -3.34 ± 0.21 | -3.76 ± 0.34
CUUCAGCAAUAUUACGUGUU | -3.34 ± 0.19 | -2.72 ± 0.24
CUUCAGCAAUAUUACGUUCU | -4.03 ± 0.33 | -2.26 ± 0.2
CUUGAGCAAUAUUACGACAU | -3.581 ± 0.028 | -2.55 ± 0.041
CUUGAGCAAUAUUACGAGCG | -2.14 ± 0.1 | -0.889 ± 0.09
CUUGAGCAAUAUUACGAGGC | -2.91 ± 0.26 | -2.89 ± 0.27
CUUGAGCAAUAUUACGAGUA | -2.07 ± 0.37 | -2.52 ± 0.32
CUUGAGCAAUAUUACGCACG | -3.3 ± 0.44 | -2.48 ± 0.43
CUUGAGCAAUAUUACGCAUC | -3.14 ± 0.4 | -2.75 ± 0.44
CUUGAGCAAUAUUACGCCCG | -2.41 ± 0.46 | –
CUUGAGCAAUAUUACGCGCG | -3.32 ± 0.29 | -1.63 ± 0.25
CUUGAGCAAUAUUACGCUGA | -2.33 ± 0.25 | -1.9 ± 0.23
CUUGAGCAAUAUUACGGCUC | – | -1.67 ± 0.36
CUUGAGCAAUAUUACGGCUG | -1.55 ± 0.14 | -1.46 ± 0.19
CUUGAGCAAUAUUACGGGAU | -2.99 ± 0.32 | -2.63 ± 0.31
CUUGAGCAAUAUUACGGGUG | -1.24 ± 0.072 | -0.485 ± 0.078
CUUGAGCAAUAUUACGGUGA | -3.34 ± 0.27 | -2 ± 0.25
CUUGAGCAAUAUUACGUAAA | – | -0.936 ± 0.2
CUUGAGCAAUAUUACGUACA | -1.97 ± 0.4 | -1.77 ± 0.38

Sequence | self-splicing fitness (ln) (30 °C) | self-splicing fitness (ln) (37 °C)
CUUGAGCAAUAUUACGUCAC | -3.37 ± 0.23 | -2.73 ± 0.31
CUUGAGCAAUAUUACGUUUA | -3.56 ± 0.26 | -2.88 ± 0.28
CUUUAGCAAUAUUACGAAGA | – | -2.43 ± 0.34
CUUUAGCAAUAUUACGAGGC | -2.85 ± 0.41 | -1.36 ± 0.26
CUUUAGCAAUAUUACGAUAC | -3.4 ± 0.39 | -2.42 ± 0.45
CUUUAGCAAUAUUACGCACG | -1.41 ± 0.21 | -0.277 ± 0.2
CUUUAGCAAUAUUACGCAGG | -2.83 ± 0.39 | –
CUUUAGCAAUAUUACGCCGA | -2.8 ± 0.48 | -2.32 ± 0.39
CUUUAGCAAUAUUACGCGGU | -2.14 ± 0.19 | -0.796 ± 0.22
CUUUAGCAAUAUUACGCGUC | -4.35 ± 0.3 | -2.85 ± 0.22
CUUUAGCAAUAUUACGCUGC | -3.39 ± 0.38 | 0.317 ± 0.36
CUUUAGCAAUAUUACGGCGC | -2.73 ± 0.37 | –
CUUUAGCAAUAUUACGGGCC | -3.32 ± 0.16 | -2.64 ± 0.21
CUUUAGCAAUAUUACGGGUA | -3.97 ± 0.47 | -2.56 ± 0.21
CUUUAGCAAUAUUACGGUUA | -3.31 ± 0.28 | -3.19 ± 0.37
CUUUAGCAAUAUUACGGUUC | -3.33 ± 0.3 | -2.83 ± 0.29
CUUUAGCAAUAUUACGUAAC | – | -1.64 ± 0.37
CUUUAGCAAUAUUACGUAAG | -0.953 ± 0.081 | -0.626 ± 0.11
CUUUAGCAAUAUUACGUCAU | -4.6 ± 0.39 | -2.13 ± 0.23
GAAAAGCAAUAUUACGAAGU | -2.98 ± 0.18 | -0.976 ± 0.2
GAAAAGCAAUAUUACGACCU | -0.497 ± 0.13 | -1.42 ± 0.12
GAAAAGCAAUAUUACGACGA | -0.234 ± 0.09 | -0.0451 ± 0.096
GAAAAGCAAUAUUACGCAUA | -1.72 ± 0.093 | -0.672 ± 0.083
GAAAAGCAAUAUUACGCCAG | -2.72 ± 0.21 | -2.28 ± 0.32
GAAAAGCAAUAUUACGCGUC | -4.29 ± 0.27 | -2.78 ± 0.24

Sequence | self-splicing fitness (ln) (30 °C) | self-splicing fitness (ln) (37 °C)
GAAAAGCAAUAUUACGCUCG | -0.762 ± 0.11 | -0.303 ± 0.15
GAAAAGCAAUAUUACGGAAC | -2.14 ± 0.13 | -1.25 ± 0.15
GAAAAGCAAUAUUACGGAAU | -2.81 ± 0.13 | -1.07 ± 0.1
GAAAAGCAAUAUUACGGAGG | -2.71 ± 0.14 | -1.73 ± 0.18
GAAAAGCAAUAUUACGGGCG | -1.32 ± 0.071 | -0.282 ± 0.1
GAAAAGCAAUAUUACGGGGC | -2.89 ± 0.16 | -3.46 ± 0.37
GAAAAGCAAUAUUACGGUUA | -0.324 ± 0.062 | -0.0141 ± 0.067
GAAAAGCAAUAUUACGUACG | -1.16 ± 0.061 | -0.9 ± 0.079
GAAAAGCAAUAUUACGUAUC | -3.9 ± 0.15 | -1.48 ± 0.1
GAAAAGCAAUAUUACGUCAU | -1.82 ± 0.088 | -0.42 ± 0.097
GAAAAGCAAUAUUACGUGGA | -2.96 ± 0.12 | -1.89 ± 0.12
GAACAGCAAUAUUACGAAAC | -0.693 ± 0.1 | -0.301 ± 0.12
GAACAGCAAUAUUACGAAAU | -1.67 ± 0.12 | -0.204 ± 0.14
GAACAGCAAUAUUACGACAG | -3.37 ± 0.18 | -2.55 ± 0.17
GAACAGCAAUAUUACGACCC | -0.0445 ± 0.095 | 0.121 ± 0.11
GAACAGCAAUAUUACGACUU | -0.206 ± 0.072 | 0.314 ± 0.088
GAACAGCAAUAUUACGAGGG | -3.29 ± 0.22 | -1.87 ± 0.22
GAACAGCAAUAUUACGAGGU | -3.08 ± 0.14 | -1.71 ± 0.12
GAACAGCAAUAUUACGAUUC | -1.65 ± 0.072 | -1.21 ± 0.11
GAACAGCAAUAUUACGAUUG | -1.62 ± 0.082 | -1.26 ± 0.11
GAACAGCAAUAUUACGCAUA | -0.914 ± 0.079 | -0.68 ± 0.094
GAACAGCAAUAUUACGCAUU | -1.67 ± 0.095 | -0.812 ± 0.12
GAACAGCAAUAUUACGCCCC | -1.22 ± 0.25 | -0.835 ± 0.47
GAACAGCAAUAUUACGCCCG | -2.49 ± 0.22 | -0.797 ± 0.2
GAACAGCAAUAUUACGCGGU | -3.6 ± 0.19 | -2.82 ± 0.21

Sequence | self-splicing fitness (ln) (30 °C) | self-splicing fitness (ln) (37 °C)
GAACAGCAAUAUUACGCGUA | -0.925 ± 0.072 | -0.411 ± 0.07
GAACAGCAAUAUUACGGCUU | -0.492 ± 0.064 | 0.239 ± 0.087
GAACAGCAAUAUUACGGGAG | -2.06 ± 0.086 | -1.47 ± 0.097
GAACAGCAAUAUUACGGGCG | -1.68 ± 0.086 | -0.0108 ± 0.097
GAACAGCAAUAUUACGGUAG | -2.81 ± 0.12 | -1.87 ± 0.14
GAACAGCAAUAUUACGGUUC | -3 ± 0.14 | -2.93 ± 0.22
GAACAGCAAUAUUACGUAAC | -1.12 ± 0.082 | -0.127 ± 0.1
GAACAGCAAUAUUACGUACG | -0.821 ± 0.081 | -0.0209 ± 0.11
GAACAGCAAUAUUACGUAUU | -1.57 ± 0.063 | -0.99 ± 0.075
GAACAGCAAUAUUACGUCAU | -0.993 ± 0.069 | -0.47 ± 0.084
GAACAGCAAUAUUACGUCUU | -0.598 ± 0.07 | 0.229 ± 0.089
GAACAGCAAUAUUACGUGAC | -1.63 ± 0.11 | -0.482 ± 0.15
GAACAGCAAUAUUACGUUGG | -2.51 ± 0.08 | -1.94 ± 0.1
GAAGAGCAAUAUUACGAACA | -2.15 ± 0.23 | -1.54 ± 0.25
GAAGAGCAAUAUUACGAGGC | – | -1.8 ± 0.41
GAAGAGCAAUAUUACGAUUA | -2.33 ± 0.23 | -1.85 ± 0.17
GAAGAGCAAUAUUACGCCAG | – | -0.627 ± 0.38
GAAGAGCAAUAUUACGCCAU | – | -1.61 ± 0.37
GAAGAGCAAUAUUACGCCUG | -0.984 ± 0.19 | -0.756 ± 0.35
GAAGAGCAAUAUUACGCGAC | -3.8 ± 0.36 | -1.18 ± 0.18
GAAGAGCAAUAUUACGCUCA | – | -1.33 ± 0.48
GAAGAGCAAUAUUACGCUGC | – | -2.63 ± 0.48
GAAGAGCAAUAUUACGGCGC | -1.12 ± 0.16 | -0.427 ± 0.16
GAAGAGCAAUAUUACGGCGG | -3.45 ± 0.2 | -2.19 ± 0.27
